# Test system: Escherichia coli TOP10
# Test: shrunken log2 fold change of peptide-encoding DNA abundance (4.5 h post-induction vs induction); higher = less antimicrobial activity (less host growth inhibition)
# Settings: time post-induction: 4.5 h; library: site-saturation at positions 5, 18, 19, 20
# 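Further: peptides expressed intracellularly from a pBAD plasmid library in pooled LB shake-flask culture, induced with 0.3% L-arabinose, DNA abundance read by NGS, three biological replicates, DESeq2 with apeglm shrinkage.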
row,Sequence,shrunken log2 fold change
1,RRIRPRPPRLPRPRPRPMDPPRP,0.0118
2,RRIRIRPPRLPRPRPRPFIVPRP,-0.105
3,RRIRWRPPRLPRPRPRPNTLPRP,-0.359
4,RRIRYRPPRLPRPRPRPQWLPRP,-0.0323
5,RRIRDRPPRLPRPRPRPWGMPRP,-0.165
6,RRIRFRPPRLPRPRPRPDANPRP,-0.138
7,RRIRSRPPRLPRPRPRPPDCPRP,-0.046
8,RRIRGRPPRLPRPRPRPVHKPRP,0.518
9,RRIRYRPPRLPRPRPRPKGSPRP,-0.143
10,RRIRGRPPRLPRPRPRPPRDPRP,1.12
11,RRIRFRPPRLPRPRPRPYSWPRP,-0.159
12,RRIRTRPPRLPRPRPRPQYFPRP,-0.395
13,RRIRNRPPRLPRPRPRPKFSPRP,-0.0617
14,RRIRSRPPRLPRPRPRPIDCPRP,-1.27
15,RRIRHRPPRLPRPRPRPCKSPRP,0.0139
16,RRIRRRPPRLPRPRPRPKWTPRP,-0.149
17,RRIRTRPPRLPRPRPRPGLEPRP,0.198
18,RRIRDRPPRLPRPRPRPNCRPRP,0.0111
19,RRIRYRPPRLPRPRPRPSEFPRP,-0.218
20,RRIRWRPPRLPRPRPRPARAPRP,0.563
21,RRIRQRPPRLPRPRPRPHLMPRP,0.106

row,Sequence,shrunken log2 fold change
1,RRIRYRPPRLPRPRPRPHITPRP,-0.538
2,RRIRDRPPRLPRPRPRPFCRPRP,0.0534
3,RRIRVRPPRLPRPRPRPYPCPRP,3.36e-05
4,RRIRDRPPRLPRPRPRPFDMPRP,0.0213
5,RRIRKRPPRLPRPRPRPKTAPRP,0.2
6,RRIRLRPPRLPRPRPRPNLQPRP,-0.0904
7,RRIRWRPPRLPRPRPRPNGIPRP,0.0301
8,RRIRRRPPRLPRPRPRPDDDPRP,0.129
9,RRIRMRPPRLPRPRPRPPLLPRP,0.515
10,RRIRFRPPRLPRPRPRPEYYPRP,-0.0413
11,RRIRVRPPRLPRPRPRPRHIPRP,-0.508
12,RRIRERPPRLPRPRPRPEEWPRP,-0.0919
13,RRIRFRPPRLPRPRPRPMIMPRP,0.234
14,RRIRWRPPRLPRPRPRPNHRPRP,-0.0538
15,RRIRHRPPRLPRPRPRPRVNPRP,0.106
16,RRIRKRPPRLPRPRPRPVSVPRP,-0.0496
17,RRIRCRPPRLPRPRPRPKAAPRP,0.115
18,RRIRGRPPRLPRPRPRPRSIPRP,0.238
19,RRIRRRPPRLPRPRPRPWNQPRP,0.0251
20,RRIRTRPPRLPRPRPRPPKNPRP,-0.0268
21,RRIRLRPPRLPRPRPRPIIYPRP,-0.196

row,Sequence,shrunken log2 fold change
1,RRIRIRPPRLPRPRPRPKQHPRP,-0.307
2,RRIRSRPPRLPRPRPRPMCCPRP,0.109
3,RRIRNRPPRLPRPRPRPAVCPRP,0.158
4,RRIRARPPRLPRPRPRPELPPRP,1.5
5,RRIRIRPPRLPRPRPRPMKHPRP,-0.224
6,RRIRMRPPRLPRPRPRPHMDPRP,-0.604
7,RRIRTRPPRLPRPRPRPALAPRP,0.425
8,RRIRHRPPRLPRPRPRPQWFPRP,-0.0606
9,RRIRHRPPRLPRPRPRPCQNPRP,-0.0608
10,RRIRLRPPRLPRPRPRPPPTPRP,1.48
11,RRIRVRPPRLPRPRPRPSHNPRP,-0.692
12,RRIRVRPPRLPRPRPRPLQKPRP,0.0697
13,RRIRERPPRLPRPRPRPDPCPRP,-0.119
14,RRIRKRPPRLPRPRPRPDAQPRP,1.59
15,RRIRRRPPRLPRPRPRPHHWPRP,0.0825
16,RRIRQRPPRLPRPRPRPIGIPRP,-0.245
17,RRIRTRPPRLPRPRPRPWEHPRP,-0.069
18,RRIRVRPPRLPRPRPRPGIWPRP,0.339
19,RRIRDRPPRLPRPRPRPTRWPRP,1.38
20,RRIRERPPRLPRPRPRPEKKPRP,-0.0578

# Source: the supplement of paper PMC9112550, “Optimization of the antimicrobial peptide Bac7 by deep mutational scanning” (BMC Biology, 2022)
